Results reported in patent publication US20250249113A1 (DEBIOPHARM RESEARCH AND MANUFACTURING S A, published 2025).
Primed or numbered codes have the meaning given here. Side-chain parts run from the residue outwards. PEG4′ = not defined here; Mal = not defined here

Molecular target: recombinant human Cathepsin B (human, UniProt P07858 80-333)
Experiment: cell-based or functional assay

- Cat B-induced drug release, fold faster than the reference Cys-MC-Val-Cit-PABC-MMAF: 20 times
Binder: {DM1-Mal}-FKK([PEG4′-Mal-Cys-Ac])F-OH (reading uncertain; also: printed as DM1-Mal-Phe-Lys-Lys(PEG4-Mal-Cys-Ac)-Phe-OH) [Compound 5: DM1-Mal-Phe-Lys-Lys(PEG4-Mal-Cys-Ac)-Phe-OH]
